Source: patent US20210070882A1

Biological target: human CD19 (human) (UniProt P15391)
Experiment: cell-based or functional assay

human CD19 (human), sequence (P15391 20-556): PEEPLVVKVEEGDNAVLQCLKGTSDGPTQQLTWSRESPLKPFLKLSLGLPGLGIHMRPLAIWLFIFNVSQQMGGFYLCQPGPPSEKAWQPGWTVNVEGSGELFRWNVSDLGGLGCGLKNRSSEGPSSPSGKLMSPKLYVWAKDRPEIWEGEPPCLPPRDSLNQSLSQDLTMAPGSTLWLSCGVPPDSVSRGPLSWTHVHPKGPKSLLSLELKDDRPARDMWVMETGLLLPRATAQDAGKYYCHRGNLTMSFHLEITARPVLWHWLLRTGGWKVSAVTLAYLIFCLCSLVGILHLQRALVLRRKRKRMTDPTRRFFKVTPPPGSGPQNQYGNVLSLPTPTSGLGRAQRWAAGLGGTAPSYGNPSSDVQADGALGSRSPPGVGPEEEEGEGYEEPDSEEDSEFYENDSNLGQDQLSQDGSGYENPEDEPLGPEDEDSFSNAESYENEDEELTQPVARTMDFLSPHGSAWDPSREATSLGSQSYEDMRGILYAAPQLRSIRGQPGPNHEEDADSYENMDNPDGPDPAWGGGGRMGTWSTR

T cell activation EC50 upon Z-138 lysis, CD25/CD4: 3.7 pM
T cell activation EC50 upon Z-138 lysis, CD25/CD8: 4.5 pM
T cell activation EC50 upon Z-138 lysis, CD69/CD4: 2.3 pM
T cell activation EC50 upon Z-138 lysis, CD69/CD8: 2.4 pM
Tumor cell lysis Z-138 cells (21 h), EC50: 0.26 ng/mL
Tumor cell lysis Z-138 cells (21 h), EC50 (pM): 4.8 pM
Substance: Blinatumomab (bispecific antibody)
